Some targets named below: TAGLN3; SRPR; CELF2.
Assay in all cases: BioID2 proximity biotinylation, streptavidin purification, TMT quantitative LC-MS
Holding throughout (settings): untreated (-K18) neurons, 3 wk; read off a plot

The target of assay [1] is NADH:ubiquinone oxidoreductase core subunit S8 (UniProt O00217).
Chain of UniProt O00217 (O00217 35-210): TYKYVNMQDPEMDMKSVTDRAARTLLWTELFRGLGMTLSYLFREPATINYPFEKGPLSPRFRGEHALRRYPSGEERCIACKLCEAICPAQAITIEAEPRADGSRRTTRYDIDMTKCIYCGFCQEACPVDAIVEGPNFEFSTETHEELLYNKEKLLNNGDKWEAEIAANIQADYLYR

Consider “0N4R tau[WT]-BioID2 (from UniProt P10636-6) P301L”, for which the enrichment (log2 abundance ratio) with TAGLN3 was found to be 2; with SRPR it was 0.65; with CELF2 it was 1.2; in assay [1], 2.5. The other: log2 abundance ratio (mutant/WT) (log2 abundance ratio) with TAGLN3 came out at 0.95; in the assay with SRPR it was 2; with CELF2 it was 2.1; in assay [1] it was 2.

The values are drawn from publication PMC9978635.
